Data: ChEMBL document CHEMBL1137898, “Benzopyranones with retro-amide side chains as (inhibitory) beta-lactamase substrates” (Bioorg Med Chem Lett, 2004)

Key:
[1] = substrate: CC(=O)OCC1=C(C(=O)O)N2C(=O)[C@@H](NC(=O)Cc3cccs3)[C@H]2SC1; test: (§1) Km for Enterobacter cloacae P99 Beta-lactamase hydrolysis
[2] = substrate: O=C(O)c1ccc2c(c1)OC(=O)C(C(=O)NCc1ccccc1)C2; test: as §1
[3] = substrate: O=C(Cc1ccccc1)NC1Cc2ccc(C(=O)O)cc2OC1=O; test: as §1
[4] = substrate: O=C(O)c1cccc2c1OC(=O)C(C(=O)NCc1ccccc1)C2; test: as §1
[5] = substrate: O=C(Cc1ccccc1)NC1Cc2cccc(C(=O)O)c2OC1=O; test: as §1
[6] = substrate: CC(=O)OCC1=C(C(=O)O)N2C(=O)[C@@H](NC(=O)Cc3cccs3)[C@H]2SC1; test: (§2) Km for OXA-1 beta-lactamase hydrolysis
[7] = substrate: O=C(O)c1cccc2c1OC(=O)C(C(=O)NCc1ccccc1)C2; test: as §2
[8] = substrate: O=C(Cc1ccccc1)NC1Cc2cccc(C(=O)O)c2OC1=O; test: as §2
[9] = substrate: O=C(O)c1ccc2c(c1)OC(=O)C(C(=O)NCc1ccccc1)C2; test: (§3) Km for TEM-2 beta-lactamase hydrolysis
[10] = substrate: O=C(Cc1ccccc1)NC1Cc2ccc(C(=O)O)cc2OC1=O; test: as §3
[11] = substrate: O=C(O)c1cccc2c1OC(=O)C(C(=O)NCc1ccccc1)C2; test: as §3
[12] = substrate: O=C(Cc1ccccc1)NC1Cc2cccc(C(=O)O)c2OC1=O; test: as §3
[13] = substrate: CC(=O)OCC1=C(C(=O)O)N2C(=O)[C@@H](NC(=O)Cc3cccs3)[C@H]2SC1; test: (§4) Km for Staphylococcus aureus PC1 Beta-lactamase hydrolysis
[14] = substrate: O=C(O)c1ccc2c(c1)OC(=O)C(C(=O)NCc1ccccc1)C2; test: as §4
[15] = substrate: O=C(O)c1cccc2c1OC(=O)C(C(=O)NCc1ccccc1)C2; test: as §4
[16] = substrate: O=C(Cc1ccccc1)NC1Cc2cccc(C(=O)O)c2OC1=O; test: as §4

B1: Beta-lactamase (Enterobacter cloacae), P05364 (protein)
chain: MMRKSLCCALLLGISCSALATPVSEKQLAEVVANTITPLMKAQSVPGMAVAVIYQGKPHYYTFGKADIAANKPVTPQTLFELGSISKTFTGVLGGDAIARGEISLDDAVTRYWPQLTGKQWQGIRMLDLATYTAGGLPLQVPDEVTDNASLLRFYQNWQPQWKPGTTRLYANASIGLFGALAVKPSGMPYEQAMTTRVLKPLKLDHTWINVPKAEEAHYAWGYRDGKAVRVSPGMLDAQAYGVKTNVQDMANWVMANMAPENVADASLKQGIALAQSRYWRIGSMYQGLGWEMLNWPVEANTVVEGSDSKVALAPLPVAEVNPPAPPVKASWVHKTGSTGGFGSYVAFIPEKQIGIVMLANTSYPNPARVEAAYHILEALQ
In the case of B1, the Km [1] is reported as 9 µM, the Km [2] is reported as 430 µM and the Km [3] is reported as 290 µM. It also gave a Km [4] of 0.2 µM and a Km [5] of 620 µM.

B2: Beta-lactamase OXA-1 (Escherichia coli), P13661 (protein)
chain: MKNTIHINFAIFLIIANIIYSSASASTDISTVASPLFEGTEGCFLLYDASTNAEIAQFNKAKCATQMAPDSTFKIALSLMAFDAEIIDQKTIFKWDKTPKGMEIWNSNHTPKTWMQFSVVWVSQEITQKIGLNKIKNYLKDFDYGNQDFSGDKERNNGLTEAWLESSLKISPEEQIQFLRKIINHNLPVKNSAIENTIENMYLQDLDNSTKLYGKTGAGFTANRTLQNGWFEGFIISKSGHKYVFVSALTGNLGSNLTSSIKAKKNAITILNTLNL
With B2 the Km [6] was 10 µM, the Km [7] was 7.4 µM and the Km [8] was 13.9 µM.

B3: Beta-lactamase TEM (Escherichia coli), P62593 (protein)
chain: MSIQHFRVALIPFFAAFCLPVFAHPETLVKVKDAEDQLGARVGYIELDLNSGKILESFRPEERFPMMSTFKVLLCGAVLSRVDAGQEQLGRRIHYSQNDLVEYSPVTEKHLTDGMTVRELCSAAITMSDNTAANLLLTTIGGPKELTAFLHNMGDHVTRLDRWEPELNEAIPNDERDTTMPAAMATTLRKLLTGELLTLASRQQLIDWMEADKVAGPLLRSALPAGWFIADKSGAGERGSRGIIAALGPDGKPSRIVVIYTTGSQATMDERNRQIAEIGASLIKHW
In the case of B3, the Km [9] is reported as over 200 µM, the Km [10] is reported as over 1200 µM and the Km [11] is reported as 290 µM. It also gave a Km [12] of 50 µM.

B4: Beta-lactamase (Staphylococcus aureus), P00807 (protein)
chain: MKKLIFLIVIALVLSACNSNSSHAKELNDLEKKYNAHIGVYALDTKSGKEVKFNSDKRFAYASTSKAINSAILLEQVPYNKLNKKVHINKDDIVAYSPILEKYVGKDITLKALIEASMTYSDNTANNKIIKEIGGIKKVKQRLKELGDKVTNPVRYEIELNYYSPKSKKDTSTPAAFGKTLNKLIANGKLSKENKKFLLDLMLNNKSGDTLIKDGVPKDYKVADKSGQAITYASRNDVAFVYPKGQSEPIVLVIFTNKDNKSDKPNDKLISETAKSVMKEF
With B4 the Km [13] was 1 µM, the Km [14] was over 200 µM and the Km [15] was 1.8 µM. For the same protein, the Km [16] was 0.3 µM.
